1 protein from publication PMC6803476, “Nanodomain Clustering of the Plant Protein Remorin by Solid-State NMR” (Frontiers in Molecular Biosciences, 2019) can be followed below.

This data set concerns the molecule itself. Put plainly: negative staining electron microscopy; purified protein incubated overnight at 30°C with preformed liposomes (protein/lipid 1/20; DMPC-d54/β-sitosterol 85/15 or DMPC-d54/β-sitosterol/PIP mix 75/15/10), 2% uranyl acetate stain; filaments mostly in samples without PIPs, very few with PIPs.

B1: REM_(86-198), truncated StREM1.3 bearing only the coiled-coil domain and RemCA (domain or fragment, Solanum tuberosum (potato), UniProt P93788 86-198, looked up)
chain: TEKRVSLIKAWEESEKSKAENKAQKKVSAIGAWENSKKANLEAELKKMEEQLEKKKAEYTEKMKNKIALLHKEAEEKRAMIEAKRGEDLLKAEELAAKYRATGTAPKKILGIF
notes: Remorin group 1 isoform 3 (StREM1.3) of potato (Solanum tuberosum), residues 86-198: coiled-coil segment and the C-terminal membrane anchor RemCA; source: E. coli BL21-DE3 (pET24 vector), purified as described in Martinez et al. (2018), HiPrep gel filtration buffer exchange
Turning to B1, the binding result is given as “binds”.
